Measured values taken from patent US11078245B2, “Colon and pancreas cancer peptidomimetics” (PRECISION BIOLOGICS, INC., priority 2010, dated 2021).

Legend:
[1] = test system: SK-MEL (Melanoma); assay: ADCC 4-hour 111-Indium release assay; assay type: cell-based, human
Procedure: (§1) The NEO-101 antibody was tested for antibody-dependent cell cytotoxicity (ADCC) activity against several colorectal and pancreatic tumor cell targets in vitro. The ADCC assay measures the amount of cell cytotoxicity that an antibody facilitates in a defined time period by the release of radiolabelled cytoplasmic proteins into the culture medium. […] The specific lytic activity was titratable with the number of effector cells in the assay.

[2] = test system: SW620 (Colorectal); assay: ADCC 4-hour 111-Indium release assay; assay type: cell-based, human
Procedure: as §1

[3] = test system: AsPC-1 (Pancreatic); assay: ADCC 4-hour 111-Indium release assay; assay type: cell-based, human
Procedure: as §1

[4] = test system: LS174T (Colorectal); assay: ADCC 4-hour 111-Indium release assay; assay type: cell-based, human
Procedure: as §1

[5] = test system: Colo-205 (Colorectal); assay: ADCC 4-hour 111-Indium release assay; assay type: cell-based, human
Procedure: as §1

[6] = test system: PANC-1 (Pancreatic); assay: ADCC 4-hour 111-Indium release assay; assay type: cell-based, human
Procedure: as §1

[7] = test system: SW1463 (Colorectal); assay: ADCC 4-hour 111-Indium release assay; assay type: cell-based, human
Procedure: as §1

[8] = test system: CFPAC-1 (Pancreatic); assay: ADCC 4-hour 111-Indium release assay; assay type: cell-based, human
Procedure: as §1

[9] = molecular target: T1, MUC5AC long construct (Homo sapiens, UniProt P98088, DEL3501-3501/G3481S/I3234V); assay: Immunofluorescence of transfected CHO cells; assay type: cell-based; settings: different plasmid clones of the MUC5AC long construct
T1 construct: expressed in transfected cells; host or cells: CHO cells, transient/clonal plasmid transfection
T1 sequence (P98088 with tags, fused parts or gaps I3234V/G3481S/DEL3501-3501): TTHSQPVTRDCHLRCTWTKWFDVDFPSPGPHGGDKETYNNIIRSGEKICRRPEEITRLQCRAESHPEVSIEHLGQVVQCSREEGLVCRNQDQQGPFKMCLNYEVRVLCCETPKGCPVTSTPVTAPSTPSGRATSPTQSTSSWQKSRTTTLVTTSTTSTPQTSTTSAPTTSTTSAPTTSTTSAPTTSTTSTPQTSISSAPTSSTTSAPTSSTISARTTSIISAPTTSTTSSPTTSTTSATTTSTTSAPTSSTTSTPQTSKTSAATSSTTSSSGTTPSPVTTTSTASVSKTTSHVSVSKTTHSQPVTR
Source text: (§2) An exemplary amino acid sequence of MUC5AC is presented in SEQ ID NO: 36 with an exemplary nucleic acid sequence encoding MUC5AC presented in SEQ ID NO: 37. Therefore, a recombinant expression plasmid was designed and constructed that encoded residues upstream of tandem repeat units and two tandem repeat units (“MUC5AC-long” SEQ ID NO: 38 with the corresponding nucleic acid sequence of SEQ ID NO: 39). The MUC5AC long peptide corresponds to amino acid residues 2636 to 2942 of the MUC5AC protein (SEQ ID NO: 36). A second expression plasmid was designed and constructed that encoded primarily a short domain which connects to the central repetitive region and only a portion of the tandem repeat residues (“MUC5AC-short” SEQ ID NO: 40 with the nucleic acid encoding it in SEQ ID NO: 41). The MUC5AC short peptide corresponds to amino acid residues 2636 to 2763 of the MUC5AC protein (SEQ ID NO: 36). These smaller fragments of the large MUC5AC molecule were predicted to comprise NEO-101 antibody binding regions that contain the NPC-1 epitope(s).
(§3) The DNA sequences that contained NEO-101 antibody binding regions, based on the amino acid sequence, were back-translated to nucleic acid sequence and the DNAs were synthesized by methods well-known in the art. […]

[10] = molecular target: T2, MUC5AC short construct (Homo sapiens, UniProt P98088, I3234V); assay: Immunofluorescence of transfected CHO cells; assay type: cell-based; settings: different plasmid clones of the MUC5AC short construct
T2 construct: expressed in transfected cells; host or cells: CHO cells, transient/clonal plasmid transfection
T2 sequence (P98088 3212-3339 I3234V): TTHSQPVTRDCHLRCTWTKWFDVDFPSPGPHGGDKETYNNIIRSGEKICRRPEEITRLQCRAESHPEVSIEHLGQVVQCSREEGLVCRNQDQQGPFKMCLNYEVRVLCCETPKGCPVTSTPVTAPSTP
Source text: as §2, §3

[11] = test system: SW480 Colorectal; assay: Flow cytometry tumor cell binding; assay type: cell-based, human
Procedure: (§4) See International Patent Application No. PCT/US2011/41502.
(§5) FACs data showing NEO-101 antibody binding to colon cancer and pancreatic cancer cell lines. Cells were washed and suspended in either 2 μg/ml NEO-101-FITC or isotype control antibody-FITC for 1 hour, washed and then subjected to FACS analysis. Experiments with all cell lines were repeated at least three times. […] DAPI was used to stain the nucleus. […] The staining pattern of these pancreatic and colorectal tumor cells was predominantly membrane-associated, consistent with the expression profile of MUC5AC.

[12] = test system: CFPAC-1 Pancreatic; assay: Flow cytometry tumor cell binding; assay type: cell-based, human
Procedure: as §4, §5

[13] = test system: LS174T Colorectal; assay: Flow cytometry tumor cell binding; assay type: cell-based, human
Procedure: as §4, §5

[14] = test system: Colo-205 Colorectal; assay: Flow cytometry tumor cell binding; assay type: cell-based, human
Procedure: as §4, §5

B1: NEO-101: Chimeric NEO-101 antibody, engineered in CHO-DG44 production cell clone 4B7; targets a variant of MUC5AC (protein)
light: QVVLTQSPVIMSASPGEKVTMTCSASSSISYMYWYQQKPGTSPKRWIYDTSKLASGVPARFSGSGSGTSYSLTISNMEAGDAATYYCHQRDSYPWTFGGGTNLEIK
heavy: QVQLKESGPDLVAPSQSLSITCTVSGFSLSKFGVNWVRQPPGKGLEWLGVIWGDGSTSYNSGLISRLSISKENSKSQVFLKLNSLQADDTATYYCVKPGGDYWGHGTSVTVSS
% Specific Killing (±SEM) ([1]; Effector:Target 12.5:1): 2.3 ± 0.6% | % Specific Killing (±SEM) ([1]; Effector:Target 25:1): 3.3 ± 1.1% | % Specific Killing (±SEM) ([1]; Effector:Target 50:1): 4.6 ± 1.1% | % Specific Killing (±SEM) ([2]; Effector:Target 12.5:1): 51.5 ± 0.9% | % Specific Killing (±SEM) ([2]; Effector:Target 25:1): 61.0 ± 1.8% | % Specific Killing (±SEM) ([2]; Effector:Target 50:1): 63.7 ± 2.9% | % Specific Killing (±SEM) ([3]; Effector:Target 12.5:1): 26.5 ± 6.7% | % Specific Killing (±SEM) ([3]; Effector:Target 25:1): 36.2 ± 2.6% | % Specific Killing (±SEM) ([3]; Effector:Target 50:1): 44.5 ± 6.8% | % Specific Killing (±SEM) ([4]; Effector:Target 12.5:1): 9.5 ± 0.5% | % Specific Killing (±SEM) ([4]; Effector:Target 25:1): 18.5 ± 4.1% | % Specific Killing (±SEM) ([4]; Effector:Target 50:1): 26.8 ± 2.9% | % Specific Killing (±SEM) ([5]; Effector:Target 12.5:1): 32.8 ± 2.0% | % Specific Killing (±SEM) ([5]; Effector:Target 25:1): 46.4 ± 1.6% | % Specific Killing (±SEM) ([5]; Effector:Target 50:1): 66.7 ± 0.6% | % Specific Killing (±SEM) ([6]; Effector:Target 12.5:1): 21.2 ± 0.6% | % Specific Killing (±SEM) ([6]; Effector:Target 25:1): 33.2 ± 3.3% | % Specific Killing (±SEM) ([6]; Effector:Target 50:1): 46.8 ± 2.1% | % Specific Killing (±SEM) ([7]; Effector:Target 12.5:1): 17.9 ± 1.7% | % Specific Killing (±SEM) ([7]; Effector:Target 25:1): 25.5 ± 0.6% | % Specific Killing (±SEM) ([7]; Effector:Target 50:1): 33.8 ± 1.0% | % Specific Killing (±SEM) ([8]; Effector:Target 12.5:1): 11.1 ± 1.6% | % Specific Killing (±SEM) ([8]; Effector:Target 25:1): 23.2 ± 2.2% | % Specific Killing (±SEM) ([8]; Effector:Target 50:1): 26.9 ± 1.6% | CHO cells bound by antibody [9]: 76%-88% | CHO cells bound by antibody [10]: 11%-80% | % Cells Stained [11]: 58.98% | mfi [11]: 118 | Percent positive ([11]; 2 μg/ml FITC antibody, FACS): 58.98% | % Cells Stained ([12]; CFPAC-1): 52.56% | mfi ([12]; CFPAC-1): 59 | Percent positive ([12]; CFPAC, 2 μg/ml FITC antibody, FACS): 52.56% | Percent positive ([13]; LS174, 2 μg/ml FITC antibody, FACS): 89.72% | % Cells Stained ([13]; LS174T): 89.72% | mfi ([13]; LS174T): 103 | % Cells Stained [14]: 94.67% | mfi [14]: 175 | Percent positive ([14]; 2 μg/ml FITC antibody, FACS): 94.67%
